# Results reported in the supplement of paper PMC9170038.
# Tested on: MS2 coat protein
# Test: apparent KD of MS2 coat protein; designed switch direction (-1 OFF switch, 1 ON switch): -1; higher = weaker reporter binding
# How it was run: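 For each design, the apparent KD is the median over clusters of curves fitted to normalised cluster fluorescence. Clusters held RNA switches with common flanks, transcribed on Illumina chips by stalled E. coli RNA polymerase. These were titrated with SNAP-549-labelled MS2 coat protein, doubling from 0.7 or 1.5 nM to 3 µM, without input, with 200 uM small-molecule ligand, or with an oligonucleotide input.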
# [1] = Eterna round: R95, input ligand: FMN 200 uM
# [2] = Eterna round: R95, input ligand: microRNA oligo, concentration not stated
# [3] = Eterna round: R95, input ligand: none
# [4] = input ligand: microRNA oligo, concentration not stated
Sequence,apparent KD of MS2 coat protein [2] [nM],apparent KD of MS2 coat protein (input ligand: FMN 200 uM) [nM],apparent KD of MS2 coat protein (input ligand: none) [nM],further results
CAGUACUGAGGAUAUACAUGAGGAUCACCCAUGUGUCCUAGCUAGGAAACUAGCAAAAGUAGAAGGCAGUACUG [Fiskers Ex 3 828 mod 5] (puzzle: Exclusion 3),21.2,,,apparent KD of MS2 coat protein [1]: 249 nM; apparent KD of MS2 coat protein [3]: 22.9 nM
"GCGCCAUCGUGAGAUGGCGUAACUACAUGAGGAUCACCCAUGUAGGAUAUCGAUUGCUUUGCAGUCGAGAAGGGCAAGGGAUAU [JL ENG3 3.87] (Eterna round: R96, puzzle: Exclusion NG 3)",,15.3,16.9,apparent KD of MS2 coat protein [4]: 13.5 nM
"UUAAUUAAUAAUUAAGAUCAUUACAUGAGGAUCACCCAUGUCGAGGAUAUCAGCUCGUUUAGAGCUGAGAAGGCGACAAAUUAU [ExNG3/13-B2] (Eterna round: R96, puzzle: Exclusion NG 3)",,670,473,apparent KD of MS2 coat protein [4]: 411 nM
CUGAGCUGAGGAUAUACAUGAGGAUCACCCAUGUGUUAGAGCUUGCGUACAGGCAGAUGUAGAAGGCAGUUCGG [JL-ex3-3.33 Brourd mod] (puzzle: Exclusion 3),14.5,,,
"AAGUAGUGUGUGAGGAUAUUGGUGGAAUGACACAUUAAGAAGGCACAUGAGGAUCACCCAUGUGGGUAAACACG [Brourd's EX4 #22] (Eterna round: R97, puzzle: Brourd's mod of Exclusion 4)",,90,33.1,
AAUAACAGAGGAUAUACUGUUUUAUGUAUUUAUUAUUUUAAACAUGAGGAUCACCCAUGUAGAAGGCUGAUUAA [JMF 43] (puzzle: Exclusion 2),27.4,,,
"GUCAGCUCGUCAGGAUAUACAUGAGGAUCACCCAUGUGAUCAAUAGCAGCUUCGGCUGCAUUAAUGUAGAAGGGACGAGCUGAU [ENG2/5-B2] (Eterna round: R96, puzzle: Exclusion NG 2)",,,,apparent KD of MS2 coat protein [4]: 168 nM
GAGCUAUGAGGAUAUGCAUAUAUACGGAUUCGUGUAGUACUACAUGAGGAUCACCCAUGUAGAAGGCGUGGCAG [Mat - Exclusion 2 - Mod of JL - D77] (puzzle: Exclusion 2),12.1,,,
"AAUUUACAUGAGGAUCACCCAUGUGAGGAUAUAUAUAUAUAUUUGUUAUUGUGUGUGUGUAGAAGGCGCGUGAU [JR_Exc1_Sub034] (Eterna round: R97, puzzle: Exclusion 1)",,33.3,42.2,
CUGGUGUGAGGAUAUCAGGACACAUCCGCGGGCGUGUCAAAUGAGAAGGCACAUGAGGAUCACCCAUGUGGGAC [Onquveatge] (puzzle: Exclusion 4),44.2,,,apparent KD of MS2 coat protein [1]: 57.1 nM; apparent KD of MS2 coat protein [3]: 53.2 nM
ACCUCACAUGAGGAUCACCCAUGUCAGGAUAUUCAAACAGGCGGAACUCCGCCUUCUCGAAGAAGGGACAUUAA [Ontebileza] (puzzle: Exclusion 1),16.6,,,
"UUUUUAUAUGAAGGAUAUACUUAACAUGAGGAUCACCCAUGUGGUGUUGUGAGUGAGUGAGUUUAGUAGAAGGUCAAUGAUUGU [JMF's solution 60] (Eterna round: R96, puzzle: Exclusion NG 2)",,918,369,apparent KD of MS2 coat protein [4]: 216 nM
"GGUUAGACGGUAGGAUAUCCAUAUCGAGUGACCCUUUCAUAACAUGAGGAUCACCCAUGUCGGUGGGAGAAGGGCCGUACGGCG [salish99_ExNG02_R04_009] (Eterna round: R96, puzzle: Exclusion NG 2)",,50.9,42.2,apparent KD of MS2 coat protein [4]: 33.5 nM
"CAGUACUGAGGAUAUACAUGAGGAUCACCCAUGUGCACCAGCUAGGAAACUAGCAAAAGUAGAAGGCAGUACUG [828 mod 2 m9] (Eterna round: R97, puzzle: Exclusion 3)",,112,15.5,
ACUAGAUGAGGAUAUGCAUAUUUUCGUGUUCUUCUAGAUUAACAUGAGGAUCACCCAUGUAGAAGGCGUCAUUA [Exclusion 2 - 17] (puzzle: Exclusion 2),16.6,,,
"UUGCCGCGAGGAUAUAUAGACGGGUUCAAUACGUGUCUCGGACUUGAGGAUCACCCAAGUAGAAGGCUUUUUAU [LRO-Excl2-12-mod _r4_621 by salish99] (Eterna round: R97, puzzle: Exclusion 2)",,15.5,14.7,
UUUUAUUGCAAGGAUAUGCAAUUUAUUAUUUAUGCAGAAGGUGCUACAUGAGGAUCACCCAUGUUUCUGGGUUU [JR_E6_Sub044] (puzzle: Exclusion 6),91.8,,,apparent KD of MS2 coat protein [1]: 253 nM; apparent KD of MS2 coat protein [3]: 86.7 nM
